Reference: patent publication US20180306788

T1: synthetic ACC2 peptide containing P2131
T1 chain: AGQVWFPDSAYKTAQ

T2: synthetic ACC2 peptide containing P450
T2 chain: ERIGFPLMIKASEGGGGK

T3: control ACC2 proline-containing peptide (P966)
T3 chain: ARLELDDPSKVHPAE

B1: HA-PHD3 (hemagglutinin-tagged prolyl hydroxylase 3, transiently overexpressed in 293T cells) (protein)
chain: MPLGHIMRLDLEKIALEYIVPCLHEVGFCYLDNFLGEVVGDCVLERVKQLHCTGALRDGQLAGPRAGVSKRHLRGDQITWIGGNEEGCEAISFLLSLIDRLVLYCGSRLGKYYVKERSKAMVACYPGNGTGYVRHVDNPNGDGRCITCIYYLNKNWDAKLHGGILRIFPEGKSFIADVEPIFDRLLFFWSDRRNPHEVQPSYATRYAMTVWYFDAEERAEAKKKFRNLTRKTESALTED
B2: recombinant PHD3 (in vitro hydroxylation assay) (protein)
chain: MPLGHIMRLDLEKIALEYIVPCLHEVGFCYLDNFLGEVVGDCVLERVKQLHCTGALRDGQLAGPRAGVSKRHLRGDQITWIGGNEEGCEAISFLLSLIDRLVLYCGSRLGKYYVKERSKAMVACYPGNGTGYVRHVDNPNGDGRCITCIYYLNKNWDAKLHGGILRIFPEGKSFIADVEPIFDRLLFFWSDRRNPHEVQPSYATRYAMTVWYFDAEERAEAKKKFRNLTRKTESALTED

Experiments:
[1] = target: ACC2 P450A point mutant
[2] = target: acetyl-CoA carboxylase 2 (ACC2), wild type
[3] = target: T1, synthetic ACC2 peptide containing P2131
[4] = target: T2, synthetic ACC2 peptide containing P450
[5] = target: T3, control ACC2 proline-containing peptide …

Protein | in vitro ACC activity assay ([14C]malonyl-CoA from [14C]bicarbonate, 293T lysates) [1] | in vitro ACC activity assay ([14C]malonyl-CoA from [14C]bicarbonate, 293T lysates) [2] | reconstituted in vitro radioactivity-based hydroxylation assay ([14C]CO2 release) [3] | reconstituted in vitro radioactivity-based hydroxylation assay ([14C]CO2 release) [4] | reconstituted in vitro radioactivity-based hydroxylation assay ([14C]CO2 release) [5]
B1 | had no effect on the P450A variant | PHD3 overexpression amplified wild-type ACC2 activity | – | – | –
B2 | – | – | but not a peptide containing P2131 | recombinant PHD3 was shown to hydroxylate a synthetic ACC2 peptide containing P450 | but not a peptide containing P2131 or a control ACC2 proline-containing peptide (P966)
